Numbered stars: 1 amine (or outer) side, 2 acyl side, 3 side chain; on linkers, the order of the positions; unused ones are H or OH. Bridge positions count the residues as written; N and C are the ends. Side chains are listed from the residue outwards. Ends that are not written are not given here. * marks the point of attachment. C20 diacid = O=C(O)CCCCCCCCCCCCCCCCCCC(=O)*; γGlu = O=C(O)[C@H](CCC(=O)[*:2])N[*:1]; AEEA = NCCOCCOCC(=O)O
B1: N^ε1-[2-[2-[2-[[(4S)-4-carboxy-4-(19-carboxynonadecanoylamino)butanoyl]amino]ethoxy]ethoxy]acetyl]-[Gly14,Arg17,Pro21,Pro27,Pro31]-h-amylin (peptide)
peptide: K([AEEA-γGlu-C20 diacid])CNTATCATQRLAGFLRHSSPNFGAIPSSTPVGSNTY-NH2
modifications: disulfide 2-7; N-terminus assumed
SMILES: CC[C@H](C)[C@H](NC(=O)[C@H](C)NC(=O)CNC(=O)[C@H](Cc1ccccc1)NC(=O)[C@H](CC(N)=O)NC(=O)[C@@H]1CCCN1C(=O)[C@H](CO)NC(=O)[C@H](CO)NC(=O)[C@H](Cc1c[nH]cn1)NC(=O)[C@H](CCCNC(=N)N)NC(=O)[C@H](CC(C)C)NC(=O)[C@H](Cc1ccccc1)NC(=O)CNC(=O)[C@H](C)NC(=O)[C@H](CC(C)C)NC(=O)[C@H](CCCNC(=N)N)NC(=O)[C@H](CCC(N)=O)NC(=O)[C@@H](NC(=O)[C@H](C)NC(=O)[C@@H]1CSSC[C@H](NC(=O)[C@@H](N)CCCCNC(=O)COCCOCCNC(=O)CC[C@H](NC(=O)CCCCCCCCCCCCCCCCCCC(=O)O)C(=O)O)C(=O)N[C@@H](CC(N)=O)C(=O)N[C@@H]([C@@H](C)O)C(=O)N[C@@H](C)C(=O)N[C@@H]([C@@H](C)O)C(=O)N1)[C@@H](C)O)C(=O)N1CCC[C@H]1C(=O)N[C@@H](CO)C(=O)N[C@@H](CO)C(=O)N[C@H](C(=O)N1CCC[C@H]1C(=O)N[C@H](C(=O)NCC(=O)N[C@@H](CO)C(=O)N[C@@H](CC(N)=O)C(=O)N[C@H](C(=O)N[C@@H](Cc1ccc(O)cc1)C(N)=O)[C@@H](C)O)C(C)C)[C@@H](C)O
notes: also called compound 71
B2: N^ε1-[2-[2-[2-[[(4S)-4-carboxy-4-(19-carboxynonadecanoylamino)butanoyl]amino]ethoxy]ethoxy]acetyl]-[His14,Arg17,Pro21,Pro27,Pro31]-h-amylin (peptide)
peptide: K([AEEA-γGlu-C20 diacid])CNTATCATQRLAHFLRHSSPNFGAIPSSTPVGSNTY-NH2
modifications: disulfide 2-7; N-terminus assumed
SMILES: CC[C@H](C)[C@H](NC(=O)[C@H](C)NC(=O)CNC(=O)[C@H](Cc1ccccc1)NC(=O)[C@H](CC(N)=O)NC(=O)[C@@H]1CCCN1C(=O)[C@H](CO)NC(=O)[C@H](CO)NC(=O)[C@H](Cc1c[nH]cn1)NC(=O)[C@H](CCCNC(=N)N)NC(=O)[C@H](CC(C)C)NC(=O)[C@H](Cc1ccccc1)NC(=O)[C@H](Cc1c[nH]cn1)NC(=O)[C@H](C)NC(=O)[C@H](CC(C)C)NC(=O)[C@H](CCCNC(=N)N)NC(=O)[C@H](CCC(N)=O)NC(=O)[C@@H](NC(=O)[C@H](C)NC(=O)[C@@H]1CSSC[C@H](NC(=O)[C@@H](N)CCCCNC(=O)COCCOCCNC(=O)CC[C@H](NC(=O)CCCCCCCCCCCCCCCCCCC(=O)O)C(=O)O)C(=O)N[C@@H](CC(N)=O)C(=O)N[C@@H]([C@@H](C)O)C(=O)N[C@@H](C)C(=O)N[C@@H]([C@@H](C)O)C(=O)N1)[C@@H](C)O)C(=O)N1CCC[C@H]1C(=O)N[C@@H](CO)C(=O)N[C@@H](CO)C(=O)N[C@H](C(=O)N1CCC[C@H]1C(=O)N[C@H](C(=O)NCC(=O)N[C@@H](CO)C(=O)N[C@@H](CC(N)=O)C(=O)N[C@H](C(=O)N[C@@H](Cc1ccc(O)cc1)C(N)=O)[C@@H](C)O)C(C)C)[C@@H](C)O
notes: also called compound 61
B3: N^ε1-[2-[2-[2-[[(4S)-4-carboxy-4-(19-carboxynonadecanoylamino)butanoyl]amino]ethoxy]ethoxy]acetyl]-[His14,Arg17,Pro21,Pro27,Pro34]-h-amylin (peptide)
peptide: K([AEEA-γGlu-C20 diacid])CNTATCATQRLAHFLRHSSPNFGAIPSSTNVGPNTY-NH2
modifications: disulfide 2-7; N-terminus assumed
SMILES: CC[C@H](C)[C@H](NC(=O)[C@H](C)NC(=O)CNC(=O)[C@H](Cc1ccccc1)NC(=O)[C@H](CC(N)=O)NC(=O)[C@@H]1CCCN1C(=O)[C@H](CO)NC(=O)[C@H](CO)NC(=O)[C@H](Cc1c[nH]cn1)NC(=O)[C@H](CCCNC(=N)N)NC(=O)[C@H](CC(C)C)NC(=O)[C@H](Cc1ccccc1)NC(=O)[C@H](Cc1c[nH]cn1)NC(=O)[C@H](C)NC(=O)[C@H](CC(C)C)NC(=O)[C@H](CCCNC(=N)N)NC(=O)[C@H](CCC(N)=O)NC(=O)[C@@H](NC(=O)[C@H](C)NC(=O)[C@@H]1CSSC[C@H](NC(=O)[C@@H](N)CCCCNC(=O)COCCOCCNC(=O)CC[C@H](NC(=O)CCCCCCCCCCCCCCCCCCC(=O)O)C(=O)O)C(=O)N[C@@H](CC(N)=O)C(=O)N[C@@H]([C@@H](C)O)C(=O)N[C@@H](C)C(=O)N[C@@H]([C@@H](C)O)C(=O)N1)[C@@H](C)O)C(=O)N1CCC[C@H]1C(=O)N[C@@H](CO)C(=O)N[C@@H](CO)C(=O)N[C@H](C(=O)N[C@@H](CC(N)=O)C(=O)N[C@H](C(=O)NCC(=O)N1CCC[C@H]1C(=O)N[C@@H](CC(N)=O)C(=O)N[C@H](C(=O)N[C@@H](Cc1ccc(O)cc1)C(N)=O)[C@@H](C)O)C(C)C)[C@@H](C)O
notes: also called compound 68
B4: N^ε1-[2-[2-[2-[[(4S)-4-carboxy-4-(19-carboxynonadecanoylamino)butanoyl]amino]ethoxy]ethoxy]acetyl]-[His14,Arg17,Pro21,Pro27]-h-amylin (peptide)
peptide: K([AEEA-γGlu-C20 diacid])CNTATCATQRLAHFLRHSSPNFGAIPSSTNVGSNTY-NH2
modifications: disulfide 2-7; N-terminus assumed
SMILES: CC[C@H](C)[C@H](NC(=O)[C@H](C)NC(=O)CNC(=O)[C@H](Cc1ccccc1)NC(=O)[C@H](CC(N)=O)NC(=O)[C@@H]1CCCN1C(=O)[C@H](CO)NC(=O)[C@H](CO)NC(=O)[C@H](Cc1c[nH]cn1)NC(=O)[C@H](CCCNC(=N)N)NC(=O)[C@H](CC(C)C)NC(=O)[C@H](Cc1ccccc1)NC(=O)[C@H](Cc1c[nH]cn1)NC(=O)[C@H](C)NC(=O)[C@H](CC(C)C)NC(=O)[C@H](CCCNC(=N)N)NC(=O)[C@H](CCC(N)=O)NC(=O)[C@@H](NC(=O)[C@H](C)NC(=O)[C@@H]1CSSC[C@H](NC(=O)[C@@H](N)CCCCNC(=O)COCCOCCNC(=O)CC[C@H](NC(=O)CCCCCCCCCCCCCCCCCCC(=O)O)C(=O)O)C(=O)N[C@@H](CC(N)=O)C(=O)N[C@@H]([C@@H](C)O)C(=O)N[C@@H](C)C(=O)N[C@@H]([C@@H](C)O)C(=O)N1)[C@@H](C)O)C(=O)N1CCC[C@H]1C(=O)N[C@@H](CO)C(=O)N[C@@H](CO)C(=O)N[C@H](C(=O)N[C@@H](CC(N)=O)C(=O)N[C@H](C(=O)NCC(=O)N[C@@H](CO)C(=O)N[C@@H](CC(N)=O)C(=O)N[C@H](C(=O)N[C@@H](Cc1ccc(O)cc1)C(N)=O)[C@@H](C)O)C(C)C)[C@@H](C)O
notes: also called compound 69
B5: N^ε1-[2-[2-[2-[[(4S)-4-carboxy-4-(19-carboxynonadecanoylamino)butanoyl]amino]ethoxy]ethoxy]acetyl]-[Lys14,Arg17,Pro21,Pro27,Pro31]-h-amylin (peptide)
peptide: K([AEEA-γGlu-C20 diacid])CNTATCATQRLAKFLRHSSPNFGAIPSSTPVGSNTY-NH2
modifications: disulfide 2-7; N-terminus assumed
SMILES: CC[C@H](C)[C@H](NC(=O)[C@H](C)NC(=O)CNC(=O)[C@H](Cc1ccccc1)NC(=O)[C@H](CC(N)=O)NC(=O)[C@@H]1CCCN1C(=O)[C@H](CO)NC(=O)[C@H](CO)NC(=O)[C@H](Cc1c[nH]cn1)NC(=O)[C@H](CCCNC(=N)N)NC(=O)[C@H](CC(C)C)NC(=O)[C@H](Cc1ccccc1)NC(=O)[C@H](CCCCN)NC(=O)[C@H](C)NC(=O)[C@H](CC(C)C)NC(=O)[C@H](CCCNC(=N)N)NC(=O)[C@H](CCC(N)=O)NC(=O)[C@@H](NC(=O)[C@H](C)NC(=O)[C@@H]1CSSC[C@H](NC(=O)[C@@H](N)CCCCNC(=O)COCCOCCNC(=O)CC[C@H](NC(=O)CCCCCCCCCCCCCCCCCCC(=O)O)C(=O)O)C(=O)N[C@@H](CC(N)=O)C(=O)N[C@@H]([C@@H](C)O)C(=O)N[C@@H](C)C(=O)N[C@@H]([C@@H](C)O)C(=O)N1)[C@@H](C)O)C(=O)N1CCC[C@H]1C(=O)N[C@@H](CO)C(=O)N[C@@H](CO)C(=O)N[C@H](C(=O)N1CCC[C@H]1C(=O)N[C@H](C(=O)NCC(=O)N[C@@H](CO)C(=O)N[C@@H](CC(N)=O)C(=O)N[C@H](C(=O)N[C@@H](Cc1ccc(O)cc1)C(N)=O)[C@@H](C)O)C(C)C)[C@@H](C)O
notes: also called compound 74
B6: N^ε1-[2-[2-[2-[[(4S)-4-carboxy-4-(19-carboxynonadecanoylamino)butanoyl]amino]ethoxy]ethoxy]acetyl]-[Ser14,Arg17,Pro21,Pro27,Pro31]-h-amylin (peptide)
peptide: K([AEEA-γGlu-C20 diacid])CNTATCATQRLASFLRHSSPNFGAIPSSTPVGSNTY-NH2
modifications: disulfide 2-7; N-terminus assumed
SMILES: CC[C@H](C)[C@H](NC(=O)[C@H](C)NC(=O)CNC(=O)[C@H](Cc1ccccc1)NC(=O)[C@H](CC(N)=O)NC(=O)[C@@H]1CCCN1C(=O)[C@H](CO)NC(=O)[C@H](CO)NC(=O)[C@H](Cc1c[nH]cn1)NC(=O)[C@H](CCCNC(=N)N)NC(=O)[C@H](CC(C)C)NC(=O)[C@H](Cc1ccccc1)NC(=O)[C@H](CO)NC(=O)[C@H](C)NC(=O)[C@H](CC(C)C)NC(=O)[C@H](CCCNC(=N)N)NC(=O)[C@H](CCC(N)=O)NC(=O)[C@@H](NC(=O)[C@H](C)NC(=O)[C@@H]1CSSC[C@H](NC(=O)[C@@H](N)CCCCNC(=O)COCCOCCNC(=O)CC[C@H](NC(=O)CCCCCCCCCCCCCCCCCCC(=O)O)C(=O)O)C(=O)N[C@@H](CC(N)=O)C(=O)N[C@@H]([C@@H](C)O)C(=O)N[C@@H](C)C(=O)N[C@@H]([C@@H](C)O)C(=O)N1)[C@@H](C)O)C(=O)N1CCC[C@H]1C(=O)N[C@@H](CO)C(=O)N[C@@H](CO)C(=O)N[C@H](C(=O)N1CCC[C@H]1C(=O)N[C@H](C(=O)NCC(=O)N[C@@H](CO)C(=O)N[C@@H](CC(N)=O)C(=O)N[C@H](C(=O)N[C@@H](Cc1ccc(O)cc1)C(N)=O)[C@@H](C)O)C(C)C)[C@@H](C)O
notes: also called compound 73

The binders below were run against T1, human calcitonin receptor (human, UniProt P30988 25-474) (assay: cell-based or functional assay).
T1 sequence (looked up): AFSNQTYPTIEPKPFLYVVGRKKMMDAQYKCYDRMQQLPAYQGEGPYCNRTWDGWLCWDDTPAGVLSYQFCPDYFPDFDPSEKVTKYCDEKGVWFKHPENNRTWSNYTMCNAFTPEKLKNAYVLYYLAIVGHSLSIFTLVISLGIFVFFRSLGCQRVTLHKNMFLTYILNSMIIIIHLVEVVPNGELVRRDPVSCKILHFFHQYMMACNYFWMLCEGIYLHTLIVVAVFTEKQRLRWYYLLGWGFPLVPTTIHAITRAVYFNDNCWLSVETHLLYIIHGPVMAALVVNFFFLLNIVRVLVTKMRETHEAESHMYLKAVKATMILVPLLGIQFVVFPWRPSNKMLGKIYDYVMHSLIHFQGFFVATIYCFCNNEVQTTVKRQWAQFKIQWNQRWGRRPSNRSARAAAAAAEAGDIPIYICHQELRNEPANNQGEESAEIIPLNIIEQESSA

| Binder | Ratio hCT/hAmylin funct. (hCTR EC50 against hAmylin-R EC50) | hCTR funct. EC50 [pM] |
| --- | --- | --- |
| B1 | 9.4 | 527 |
| B2 | 10.9 | 554 |
| B3 | 17.4 | 932 |
| B4 | 13.3 | 1250 |
| B5 | 56.3 | 37500 |
| B6 | 11.3 | 961 |

Each binder was assayed against T2, human amylin receptor (amylin 3(a) receptor: human calcitonin receptor co-expressed with RAMP-3) (human, UniProt P30988 25-474; O60896 24-148, limits assumed) (assay: cell-based or functional assay).
T2 sequence (looked up) 1: T1 sequence (looked up)
T2 sequence (looked up) 2: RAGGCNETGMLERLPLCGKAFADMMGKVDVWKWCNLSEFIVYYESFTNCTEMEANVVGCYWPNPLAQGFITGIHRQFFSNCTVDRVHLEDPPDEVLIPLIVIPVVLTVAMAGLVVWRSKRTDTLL

| Binder | hAmylin-R funct. EC50 [pM] |
| --- | --- |
| B1 | 56 |
| B2 | 51 |
| B3 | 54 |
| B4 | 94 |
| B5 | 666 |
| B6 | 85 |
